B1: CLCN6 (parent)
chain: VGEIVGIITRHNLTYEFLQARLRQ
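Further: lentivirally expressed fusions sorted by FACS into six bins by GFP to DsRed ratio, PSI derived from sequencing read proportions per bin multiplied by bin number.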

In this data set the parent is B1. As to the kind of experiment: protein stability index of a GFP-peptide fusion (GPS, HEK-293T) (PSI 1-6); higher = more stable. The following applies: c terminus: a fixed tail appended.
In the case of VGEIVGIITRHNLAYEFLQARLRQ, the protein stability index stood at 3.01.

As to VGEIVGIITRHNLQYEFLQARLRQ, the protein stability index is 1.26.

In the case of VGEIVGIITRHNLFYEFLQARLRQ, the protein stability index was 2.92.

As to VGEIVGIITRHNLVYEFLQARLRQ, the protein stability index is 2.98.

In the case of VGEKVGIITRHNLTYEFLQARLRQ, the protein stability index was determined as 2.15.

As for VGERVGIITRHNLTYEFLQARLRQ, the protein stability index was 2.72.

With VGETVGIITRHNLTYEFLQARLRQ, the protein stability index stood at 1.75.

Regarding VGEEVGIITRHNLTYEFLQARLRQ, the protein stability index amounted to 2.51.

With VGEHVGIITRHNLTYEFLQARLRQ, the protein stability index amounted to 2.02.

Regarding VGECVGIITRHNLTYEFLQARLRQ, the protein stability index is 2.18.

As to VGELVGIITRHNLTYEFLQARLRQ, the protein stability index is 2.59.

VGESVGIITRHNLTYEFLQARLRQ: the protein stability index was found to be 2.23.

Take VGEAVGIITRHNLTYEFLQARLRQ: the protein stability index came to 2.1.

VGEPVGIITRHNLTYEFLQARLRQ: the protein stability index is 2.88.

On to VGEMVGIITRHNLTYEFLQARLRQ, for which the protein stability index is 2.33.

Turning to VGEIVGIITRHNLTYEFLQARLPQ, the protein stability index amounted to 1.86.

Consider VGEIVGIITRHNLTYEFLQARLYQ, for which the protein stability index amounted to 4.23.

As for VGEIVGIITRHNLTYEFLQARLEQ, the protein stability index is 1.2.

Turning to VGEIVGIITRHNLTGEFLQARLRQ, the protein stability index was 1.65.

Regarding VGEIVGIITRHNLTDEFLQARLRQ, the protein stability index was 1.51.

Turning to VGEIVGIITRHNLTKEFLQARLRQ, the protein stability index is 1.47.

Take VGEIVGIITRHNLTYEFLQSRLRQ: the protein stability index turned out to be 2.02.

Consider VGEIVGIITRHNLTYEFLQIRLRQ, for which the protein stability index is 2.56.

As for VGEIVGIITRHNLTYEFLQYRLRQ, the protein stability index is 1.04.

On to VYEIVGIITRHNLTYEFLQARLRQ, for which the protein stability index was 1.98.

For the variant VVEIVGIITRHNLTYEFLQARLRQ, the protein stability index worked out at 2.66.

Turning to VLEIVGIITRHNLTYEFLQARLRQ, the protein stability index was found to be 2.48.

As for VNEIVGIITRHNLTYEFLQARLRQ, the protein stability index amounted to 3.

As for VGDIVGIITRHNLTYEFLQARLRQ, the protein stability index worked out at 2.05.

In the case of VGAIVGIITRHNLTYEFLQARLRQ, the protein stability index was found to be 2.59.

Consider VGCIVGIITRHNLTYEFLQARLRQ, for which the protein stability index was determined as 2.72.

As for VGTIVGIITRHNLTYEFLQARLRQ, the protein stability index was found to be 1.74.

With VGEIVGIITRHNLTYEQLQARLRQ, the protein stability index is 2.76.

As to VGEIVGIITRHNLTYEELQARLRQ, the protein stability index came out at 2.01.

On to VGEIVGIITRHNLTYEHLQARLRQ, for which the protein stability index amounted to 1.04.

For VGEIVGIITRHNCTYEFLQARLRQ, the protein stability index amounted to 2.08.

Regarding VGEIVGIITRHNETYEFLQARLRQ, the protein stability index came to 2.18.

VGEIVGIITRHNNTYEFLQARLRQ: the protein stability index stood at 1.08.

For the variant VGEIVGIITRHNVTYEFLQARLRQ, the protein stability index stood at 2.04.

Regarding VGEIVGKITRHNLTYEFLQARLRQ, the protein stability index is 1.7.

VGEIVGAITRHNLTYEFLQARLRQ: the protein stability index amounted to 1.77.

Turning to VGEIVGIITEHNLTYEFLQARLRQ, the protein stability index was 2.92.

With VGEIVGIITNHNLTYEFLQARLRQ, the protein stability index was determined as 2.88.

As for VGEIVGIITPHNLTYEFLQARLRQ, the protein stability index was 1.75.

In the case of VGEIVGIITTHNLTYEFLQARLRQ, the protein stability index came to 3.15.

For VGEIVGIITLHNLTYEFLQARLRQ, the protein stability index is 4.12.

On to VGEIVGIITRHNLTYEFLQANLRQ, for which the protein stability index amounted to 2.01.

With VGEIVGIITRHNLTYEFLQADLRQ, the protein stability index turned out to be 2.76.

On to VGEIVGIITRHNLTYEFLQAVLRQ, for which the protein stability index was 1.67.

Take VGEIVGIITRHNLTYEFLEARLRQ: the protein stability index came to 2.47.

On to VGEIVGIITRHNLTYEFLQARLRA, for which the protein stability index came out at 4.07.

On to VGEIVGIITRHNLTYEFLQARLRV, for which the protein stability index was 2.87.

Turning to VGEIVGIITRHNLTYEFLQARLRS, the protein stability index worked out at 2.53.

Take VGEIVGIITRHNLTYEFLQARLRY: the protein stability index is 2.14.

VGEIVGIITRHNLTYEFLQARSRQ: the protein stability index worked out at 2.58.

In the case of VGEIVGIITRHNLTYEFLQARWRQ, the protein stability index stood at 2.32.

VGEIVGIYTRHNLTYEFLQARLRQ: the protein stability index came to 1.21.

Regarding VGEIVGISTRHNLTYEFLQARLRQ, the protein stability index is 2.65.

VGEIHGIITRHNLTYEFLQARLRQ: the protein stability index was determined as 1.92.

On to VGEIEGIITRHNLTYEFLQARLRQ, for which the protein stability index was found to be 1.76.

Consider VGEISGIITRHNLTYEFLQARLRQ, for which the protein stability index worked out at 1.83.

Consider VGEIMGIITRHNLTYEFLQARLRQ, for which the protein stability index turned out to be 3.11.

As to VGEIVGIITRHNLTYEFFQARLRQ, the protein stability index came to 2.71.

For the variant VGEIVGIITRHNLTYEFQQARLRQ, the protein stability index was determined as 2.07.

Turning to VGEIVGIITRHNLTYEFRQARLRQ, the protein stability index worked out at 2.55.

For the variant VGEIVGIITRHNLTYEFKQARLRQ, the protein stability index is 2.67.

For VGEIVGIITRHNLTYEFEQARLRQ, the protein stability index was found to be 3.96.

Consider VGEIVGIITRHNLTYEFGQARLRQ, for which the protein stability index is 1.58.

Regarding VGEIVGIIPRHNLTYEFLQARLRQ, the protein stability index turned out to be 2.78.

As for VGEIVGIICRHNLTYEFLQARLRQ, the protein stability index turned out to be 2.71.

Take VGEIVGIILRHNLTYEFLQARLRQ: the protein stability index worked out at 1.89.

As to VGEIVGIITRHNLTYWFLQARLRQ, the protein stability index came out at 3.79.

On to VGEIVGIITRHNLTYHFLQARLRQ, for which the protein stability index was found to be 2.17.

VGEIVGIITRHNLTYSFLQARLRQ: the protein stability index was 2.17.

Turning to VGEIVGIITRHNLTYQFLQARLRQ, the protein stability index is 1.93.

VGEIVGIITRHNLTYGFLQARLRQ: the protein stability index amounted to 1.02.

With VGEIVGIITRHNLTYPFLQARLRQ, the protein stability index was 1.8.

With VGEIVGIITRHNLTYLFLQARLRQ, the protein stability index stood at 3.17.

As to PGEIVGIITRHNLTYEFLQARLRQ, the protein stability index is 1.44.

As for NGEIVGIITRHNLTYEFLQARLRQ, the protein stability index was 3.06.

FGEIVGIITRHNLTYEFLQARLRQ: the protein stability index is 2.41.

For the variant KGEIVGIITRHNLTYEFLQARLRQ, the protein stability index stood at 2.18.

Turning to SGEIVGIITRHNLTYEFLQARLRQ, the protein stability index came to 2.31.

For TGEIVGIITRHNLTYEFLQARLRQ, the protein stability index was found to be 1.65.

Consider GGEIVGIITRHNLTYEFLQARLRQ, for which the protein stability index turned out to be 1.27.

With VGEIVGIITRHALTYEFLQARLRQ, the protein stability index worked out at 5.

As to VGEIVGIITRHPLTYEFLQARLRQ, the protein stability index was determined as 1.92.

For VGEIVGIITRHHLTYEFLQARLRQ, the protein stability index was 3.27.

In the case of VGEIVGIITRHDLTYEFLQARLRQ, the protein stability index came to 2.21.

VGEIVGIITRHILTYEFLQARLRQ: the protein stability index came out at 1.15.

As for VGEIVPIITRHNLTYEFLQARLRQ, the protein stability index stood at 1.7.

With VGEIVEIITRHNLTYEFLQARLRQ, the protein stability index came out at 4.38.

Take VGEIVSIITRHNLTYEFLQARLRQ: the protein stability index amounted to 2.95.

Consider VGEIVHIITRHNLTYEFLQARLRQ, for which the protein stability index is 2.89.

The values are drawn from the supplement of paper PMC10567573.
